Measurements: patent US20110142842A1 (published 2011)

T1: CD20 peptide on HLA-A*02:01 (human)
T1 peptide: SLFLGILSV


Biological target: T1, CD20 peptide on HLA-A*02:01
Assay: multimer staining

Row | Binder | binding result
1 | TCR of SEQ ID NOs 177 and 150 (CDR3 alpha and CDR3 beta) (TCR) alpha TRAV30 J-57 CDR3: GTQGGSEKLV beta TRBV19 J2-7 CDR3: ATAPGLSYEQY | recognises
2 | TCR of SEQ ID NOs 181 and 155 (CDR3 alpha and CDR3 beta) (TCR) alpha TRAV24 J-28 CDR3: AFMPGAGSYQLT beta TRBV4-2 J2-7 CDR3: ASSQGLTYEQY | recognises
3 | TCR of SEQ ID NOs 179 and 153 (CDR3 alpha and CDR3 beta) (TCR) alpha TRAV38-2/DV8 J-43 CDR3: AYASFDMR beta TRBV13 J2-3 CDR3: ASSLGSANTQY | recognises

The next lines start with the values.

Row | binding result | Binder
4 | recognises | TCR of SEQ ID NOs 175 and 148 (CDR3 alpha and CDR3 beta) (TCR) alpha TRAV12-2 J-33 CDR3: AGIMDSNY beta TRBV4-2 J2-7 CDR3: ASSHGNGYEQY
5 | recognises | TCR of SEQ ID NOs 180 and 154 (CDR3 alpha and CDR3 beta) (TCR) alpha TRAV5 J-23 CDR3: AEWGQGGKLI beta TRBV12-4 J2-7 CDR3: ASSPGLTYEQY
